Data as given in patent publication US20160158380A1 (INSERM INSTITUT NATIONAL DE LA SANTE ET DE LA RECHERCHE …, published 2016).

How the values were obtained:
CLDN7 = target: T1, CLDN7 (human, UniProt O95471 1-211); assay: flow cytometry on parental SW480 cells, which express CLDN7
T1 construct: whole, on cells; Species is inferred from the human SW480 cell line
T1 sequence (looked up): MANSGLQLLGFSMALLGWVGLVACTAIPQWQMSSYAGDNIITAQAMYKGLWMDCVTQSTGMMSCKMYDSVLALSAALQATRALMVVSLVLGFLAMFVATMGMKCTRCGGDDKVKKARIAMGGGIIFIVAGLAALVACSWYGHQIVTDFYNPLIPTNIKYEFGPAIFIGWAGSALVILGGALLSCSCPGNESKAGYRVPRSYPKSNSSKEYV

human CLDN8 = target: T2, human CLDN8 (human, UniProt P56748 1-225); assay: flow cytometry on SW480 cells transiently transfected with human CLDN8
T2 construct: whole, on cells
T2 sequence (looked up): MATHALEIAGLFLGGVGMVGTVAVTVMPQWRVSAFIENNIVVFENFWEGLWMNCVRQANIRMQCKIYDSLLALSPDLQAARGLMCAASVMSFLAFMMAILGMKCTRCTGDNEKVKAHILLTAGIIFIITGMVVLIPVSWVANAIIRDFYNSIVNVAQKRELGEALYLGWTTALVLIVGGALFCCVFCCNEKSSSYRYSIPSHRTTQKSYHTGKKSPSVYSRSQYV
Experimental: (§1) Hybridomas or mAbs binding was determined with a FACScan fluorescence-activated cell sorter (Quanta apparatus, Beckman Coulter). Cells were seeded in 25 cm² flasks (2×10⁵ cells/flask). After a 48-hour rest, one million cells were pelleted, Washed with PBS-1% BSA and incubated with hybridomas or mAbs, on ice for 1 h. After washing, an appropriate anti-mouse FITC conjugated monoclonal antibody ((1:60 dilution; (Invitrogen) was added (on ice for 45 mn) to detect the primary antibodies. Direct incubation of cells with the secondary antibody was used for background measurements (negative control).
(§2) After transitory transfection on SW480 cells of human cDNA clone of CLDN8 (sc320974, Origene technologies, USA) and murine cDNA clone of CLDN1 (IRAVp968A105D, LifeScience), we analysed by FACs cross-reactivity of 6F6C3 mAb.

murine CLDN1 = target: T3, murine CLDN1 (murine, UniProt O88551 1-211); assay: flow cytometry on SW480 cells transiently transfected with murine CLDN1
T3 construct: whole, on cells; also called mCLDN1
T3 sequence (looked up): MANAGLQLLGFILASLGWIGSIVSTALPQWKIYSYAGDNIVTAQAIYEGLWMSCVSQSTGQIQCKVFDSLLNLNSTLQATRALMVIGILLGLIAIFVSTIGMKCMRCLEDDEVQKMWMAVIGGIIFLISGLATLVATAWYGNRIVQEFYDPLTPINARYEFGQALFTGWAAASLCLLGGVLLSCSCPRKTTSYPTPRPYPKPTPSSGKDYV
Experimental: as §1, §2

Measured: binding result

B1: 6F6C3 mAb (antibody, V domains shown)
VH: QIQLVQSGPELKKPGETVRISCKASGYTFTTSGMQWLQKMPGKGLKWIGWINTHFGEPKYAEDFKGRFAFSLETSASTAYLQISNLKNEDTATYFCAGAGYYGSRYFDVWGAGTTVTVSS
VL: DIVMTQSQKFMSTSVGDRVSITCKASQNVGTAVAWYQQKPGQSPKLLIYSASNRYTGVPDRFTGSGSGTDFTLTISNMQSEDLADYFCQQYSSYPLTFGGGTKLEIK
notes: Mouse hybridoma monoclonal antibody, IgG3 heavy chain and kappa light chain; also called mAb6F6C3; MAb 6F6C3
no binding (tested: 10 µg/mL): CLDN7 | human CLDN8 | murine CLDN1
